From patent publication US20120316071A1 (published 2012)

Experiments:
[1] = biological target: T1, Recombinant Human DLL4 (R&D Systems Cat#1506-D4/CF) (human, UniProt Q9NR61 27-524); assay: ELISA on coated DLL4, 100 nM Fab
T1 construct: Bought recombinant human DLL4; also called delta-like protein 4; rHuman DLL4

[2] = biological target: T1, Recombinant Human DLL4 (R&D Systems …); assay: ECL (MSD) binding assay, immobilised DLL4, 10 nM Fab;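 further: fab binding read as electrochemiluminescence via a TAG-labelled detection antibody, 1 h incubations at 20 °C, antigen signal compared with each well's blank, ratio of at least 4 scored as binder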
[3] = biological target: T2, Recombinant Human DLL4 (delta-like protein 4) (human, UniProt Q9NR61 27-524); assay: ECL (Meso Scale Discovery) binding assay on immobilised recombinant human DLL4; Fab concentration not given
T2 construct: Bought recombinant protein (R&D Systems Cat#1506-D4/CF); also called rHuman DLL4; Delta-like 4

[4] = biological target: T3, Recombinant Human DLL4 (delta-like protein 4) (human, UniProt Q9NR61 27-524); assay: ELISA on coated DLL4, Fab at 25 nM (2-fold serial dilution)
T3 construct: also called rHuman DLL4; Delta-like 4

[5] = biological target: T3, Recombinant Human DLL4 (delta-like …); assay: ELISA on coated DLL4, Fab at 12.5 nM (2-fold serial dilution)
[6] = biological target: T3, Recombinant Human DLL4 (delta-like …); assay: ELISA on coated DLL4, Fab at 6.25 nM (2-fold serial dilution)
[7] = biological target: T3, Recombinant Human DLL4 (delta-like …); assay: ELISA on coated DLL4, Fab at 50 nM (2-fold serial dilution)
[8] = biological target: T3, Recombinant Human DLL4 (delta-like …); assay: ELISA on coated DLL4, Fab at 100 nM (2-fold serial dilution)
[9] = biological target: T3, Recombinant Human DLL4 (delta-like …); assay: ELISA on coated DLL4, Fab at 3.125 nM (2-fold serial dilution)

B1: Fab VH5-51_IGHD5-18*01>3_IGHJ4*01 G100K/G104T (H:KT) & V3-4_IGLJ1*01 S96P (Fab, V domains shown)
VH: EVQLVQSGAEVKKPGESLKISCKGSGYSFTSYWIGWVRQMPGKGLEWMGIIYPGDSDTRYSPSFQGQVTISADKSISTAYLQWSSLKASDTAMYYCARRKYSYTYDYFDYWGQGTLVTVSS
VL: QTVVTQEPSFSVSPGGTVTLTCGLSSGSVSTSYYPSWYQQTPGQAPRTLIYSTNTRSSGVPDRFSGSILGNKAALTITGAQADDESDYYCVLYMGPGISYVFGTGTKVTVL
notes: Tested as a Fab made in E. coli; The heavy chain vector (plasmid A) adds CH1 with His6 and Flag tags; the lambda light chain vector (plasmid E) adds CL; also called G100K/G104T & S96P
[1]
  ELISA Signal [100 nM Fab]: 0.03
[2]
  ECL Signal [10 nM Fab]: 54000

B2: Fab VH5-51_IGHD5-18*01>3_IGHJ4*01 G100K/G104T (H:KT) & V3-4_IGLJ1*01 (Fab, V domains shown)
VH: EVQLVQSGAEVKKPGESLKISCKGSGYSFTSYWIGWVRQMPGKGLEWMGIIYPGDSDTRYSPSFQGQVTISADKSISTAYLQWSSLKASDTAMYYCARRKYSYTYDYFDYWGQGTLVTVSS
VL: QTVVTQEPSFSVSPGGTVTLTCGLSSGSVSTSYYPSWYQQTPGQAPRTLIYSTNTRSSGVPDRFSGSILGNKAALTITGAQADDESDYYCVLYMGSGISYVFGTGTKVTVL
notes: Tested as Fab made in E. coli: VH joined to CH1 (Plasmid A, His and Flag tags), VL joined to lambda CL (Plasmid E); also called H:KT & L:wt; KT double mutant
[3]
  ECL signal: 9360

B3: Fab VH5-51_IGHD5-18*01>3_IGHJ4*01 G100K/G104T G35V & V3-4_IGLJ1*01 (Fab, V domains shown)
VH: EVQLVQSGAEVKKPGESLKISCKGSGYSFTSYWIVWVRQMPGKGLEWMGIIYPGDSDTRYSPSFQGQVTISADKSISTAYLQWSSLKASDTAMYYCARRKYSYTYDYFDYWGQGTLVTVSS
VL: QTVVTQEPSFSVSPGGTVTLTCGLSSGSVSTSYYPSWYQQTPGQAPRTLIYSTNTRSSGVPDRFSGSILGNKAALTITGAQADDESDYYCVLYMGSGISYVFGTGTKVTVL
notes: Fab; also called H:KT G35V & L:parent
[4]
  ELISA signal: 0.232
[5]
  ELISA signal: 0.244
[6]
  ELISA signal: 0.245
[7]
  ELISA signal: 0.232
[8]
  ELISA signal: 0.271
[9]
  ELISA signal: 0.251

B4: Fab VH5-51_IGHD5-18*01>3_IGHJ4*01 G100K/G104T (H:KT) & V3-4_IGLJ1*01 S96V (Fab, V domains shown)
VH: EVQLVQSGAEVKKPGESLKISCKGSGYSFTSYWIGWVRQMPGKGLEWMGIIYPGDSDTRYSPSFQGQVTISADKSISTAYLQWSSLKASDTAMYYCARRKYSYTYDYFDYWGQGTLVTVSS
VL: QTVVTQEPSFSVSPGGTVTLTCGLSSGSVSTSYYPSWYQQTPGQAPRTLIYSTNTRSSGVPDRFSGSILGNKAALTITGAQADDESDYYCVLYMGVGISYVFGTGTKVTVL
notes: Fab format: CH1 with His6 and Flag tags, and lambda CL, from the vectors; also called G100K/G104T & S96V
[1]
  ELISA Signal [100 nM Fab]: 0.01
[2]
  ECL Signal [10 nM Fab]: 42300

B5: Fab VH5-51_IGHD5-18*01>3_IGHJ4*01 G100K/G104T T58D & V3-4_IGLJ1*01 (Fab, V domains shown)
VH: EVQLVQSGAEVKKPGESLKISCKGSGYSFTSYWIGWVRQMPGKGLEWMGIIYPGDSDDRYSPSFQGQVTISADKSISTAYLQWSSLKASDTAMYYCARRKYSYTYDYFDYWGQGTLVTVSS
VL: QTVVTQEPSFSVSPGGTVTLTCGLSSGSVSTSYYPSWYQQTPGQAPRTLIYSTNTRSSGVPDRFSGSILGNKAALTITGAQADDESDYYCVLYMGSGISYVFGTGTKVTVL
notes: Fab; also called H:KT T58D & L:parent
[4]
  ELISA signal: 0.218
[5]
  ELISA signal: 0.223
[6]
  ELISA signal: 0.224
[7]
  ELISA signal: 0.23
[8]
  ELISA signal: 0.219
[9]
  ELISA signal: 0.252

B6: Fab VH5-51_IGHD5-18*01>3_IGHJ4*01 G100K/G104T (KT) & V3-4_IGLJ1*01 S52G (Fab, V domains shown)
VH: EVQLVQSGAEVKKPGESLKISCKGSGYSFTSYWIGWVRQMPGKGLEWMGIIYPGDSDTRYSPSFQGQVTISADKSISTAYLQWSSLKASDTAMYYCARRKYSYTYDYFDYWGQGTLVTVSS
VL: QTVVTQEPSFSVSPGGTVTLTCGLSSGSVSTSYYPSWYQQTPGQAPRTLIYGTNTRSSGVPDRFSGSILGNKAALTITGAQADDESDYYCVLYMGSGISYVFGTGTKVTVL
notes: Fab; also called H:KT & L:S52G
[4]
  ELISA signal: 0.227
[5]
  ELISA signal: 0.215
[6]
  ELISA signal: 0.207
[7]
  ELISA signal: 0.194
[8]
  ELISA signal: 0.209
[9]
  ELISA signal: 0.216

B7: Fab VH5-51_IGHD5-18*01>3_IGHJ4*01 G100K/G104T (H:KT) & V3-4_IGLJ1*01 T78S (Fab, V domains shown)
VH: EVQLVQSGAEVKKPGESLKISCKGSGYSFTSYWIGWVRQMPGKGLEWMGIIYPGDSDTRYSPSFQGQVTISADKSISTAYLQWSSLKASDTAMYYCARRKYSYTYDYFDYWGQGTLVTVSS
VL: QTVVTQEPSFSVSPGGTVTLTCGLSSGSVSTSYYPSWYQQTPGQAPRTLIYSTNTRSSGVPDRFSGSILGNKAALTISGAQADDESDYYCVLYMGSGISYVFGTGTKVTVL
notes: Fab with CH1 and lambda CL from the expression plasmids; also called G100K/G104T & T78S
[3]
  ECL signal: 7550

B8: Fab VH5-51_IGHD5-18*01>3_IGHJ4*01 G100K/G104T (KT) & V3-4_IGLJ1*01 R56Y (Fab, V domains shown)
VH: EVQLVQSGAEVKKPGESLKISCKGSGYSFTSYWIGWVRQMPGKGLEWMGIIYPGDSDTRYSPSFQGQVTISADKSISTAYLQWSSLKASDTAMYYCARRKYSYTYDYFDYWGQGTLVTVSS
VL: QTVVTQEPSFSVSPGGTVTLTCGLSSGSVSTSYYPSWYQQTPGQAPRTLIYSTNTYSSGVPDRFSGSILGNKAALTITGAQADDESDYYCVLYMGSGISYVFGTGTKVTVL
notes: Fab; also called H:KT & L:R56Y
[4]
  ELISA signal: 0.205
[5]
  ELISA signal: 0.184
[6]
  ELISA signal: 0.182
[7]
  ELISA signal: 0.211
[8]
  ELISA signal: 0.231
[9]
  ELISA signal: 0.18
